These are literature values, as cited in article PMC6248945, “Antibacterial properties of the pituitary adenylate cyclase-activating polypeptide: A new human antimicrobial peptide” (PLoS ONE, 2018).

Where no end group is shown, it is not given here.

The series deals with CHO-K1. To be noted: various eukaryotic cells including CHO-K1; cited from earlier work. The text has this: This peptide, well known for its pleiotropic activities in human, mediates its biological activities through the activation of three G protein-coupled receptors, named PAC1, VPAC1, and VPAC2[8]. […] The ...

“[Arg^17]PACAP(11–38) (SRYRKQRAVKKYLAAVLGKRYKQRVKNK; ends and bridges not checked; UniProt P18509 142-169, looked up, variant M17R)”: the Cytotoxic effect entry is reported as “no cytotoxic effect”.
